A protein production outcome set (Wang et al. 2014)

Assay: label from the status in PepcDB records

MSDHRPAARPWANRRRTIMSTTTLPGSTVATLTVTTPSDREVQITRIFDASRPMVFDCWTIPELLKGWLHGPDGWRLAICEIDLRVGGATRYVWQHRDGRSMGMSGAYREIVRPARIVATELFDEDWTGGETVGTVVFTEQAGKTLLTQTVLYASQAARDGALGTGMTRGMGESYAQLDAYLISLQDAAKGAA
protein production: failed

MPKRSKEDTEITIQKIMDAVVDQLLRLGYDKMSYTTLSQQTGVSRTGISHHFPKKTDFTAALDGRIFKMFIEHLEFEKGLDAFSQSWIKALEDSEFLAILRLLFHHIVTSESAHEFAANGIDRLYKMVESQFGSGGDKELEWLIGRSLIQMSK
protein production: not failed

MSRTLVLFDIDGTLLKVESMNRRVLADALIEVYGTEGSTGSHDFSGKMDGAIIYEVLSNVGLERAEIADKFDKAKETYIALFRERARREDITLLEGVRELLDALSSRSDVLLGLLTGNFEASGRHKLKLPGIDHYFPFGAFADDALDRNELPHIALERARRMTGANYSPSQIVIIGDTEHDIRCARELDARSIAVATGNFTMEELARHKPGTLFKNFAETDEVLASILTPKHS
protein production: not failed

MSAPSSPSTSQTRPPARSLWRRRRTWFLVGGGGLGAAAVVVLLGIWWRSPTPEAAIALRQSDFAELRWQSRFAMDAATRQRARFLYALAIAPDQPQAALQALQGLERSYPLLGPYILKLRAQVQTQLGQDPRETWRQLLNTYPESPVQAEAVLALGQWDLAPATIQRWPRYPASNELARQLAKRQPAEAKRWLLQIAQFGRYRFDIDAVLSELQALPNLTARDRQQIADAYWQRDDYATAADLYARSPQTDETLYRQARSLDLTSQPEVARTLYQQLLQRFPQSPERERALVHLVRLDPANRDRYLQLLERQFALSLPEALGLAAATEPRYRPILLQRFPASPEAAALRWQQAWQQAEAGNLPQAIALVTQTRDRSPTIEAAAQAGFWLGRWQTQLGQTDAAQAAWQWVLQQHPDSYYAWRSAAALGWPVGDFSQVQAQQPAWPQAQSPQALPAGSAVLKELYALGQTEDAWRLWQQEGPSRDPSPSDRFISALLEASISRYDRAASLLKGLPIDSPLRQRSDFVSTLYPVVFKEEITAATQRDRLNPLLVLGLIRQESRFLPGATSVVGARGLMQLMPETAAEVAAELGLQQYDLGDPQTNIQLGSRYLRNVLDYWREDSLFAIASYNAGPGNVENWVRRFGRRDRDRWLEQIPFPETRDYVEKVLSNYWNYLRQSDRSLEQRLQQLDR
protein production: failed

MSYMGKKKKDCLFHVDGFEEWMDQFCSDSCSNFSFPNQIHIDLCETEQEYILETDVPNVTEQNVVIKKMETGLNICILHKNISLQRNIPLPTTIIYKKMLACLENGFLAIHISKNEVANKHEEKVLFQIEN
protein production: failed

MGRVKLELKRIEKSTNRQITFSKRKKGLIKKAYELSTLCDIDLALLMFSPSDRLCLFSGQTRIEDVLARYINLPDQERENAIVFPDQSKRQGIQNKEYLLRTLEKLKIEDDMALQINEPRFIPH
protein production: failed

MPKSMGMAVAVPVTLAVIAAGGAGVGAYMYNERNLALEELARQSELSGSIATLETEVAGLTSQVKAAEGQLGDLNGQLEAAKAELAEVQGQHDRLSSELEPMRAEIASFDSRKAEAEESTAKAIADFQAADARLKELTDREDNLRATVSKLAAEVQDLDRRMEGLRAESGALVAAAQSAARQRTDLQGMVETLAGLLATRSEELVQLERRIGEQDLKVPAAGPAPLAAAAGAASQAPDGAGAAEPAAKEAETAAPETDAAGQTASQAEGSEAGSQPAAEPEAAEADGGNGAAEEPEAGAQDEGADAAAEPAPTGASEDAPDDAAAEGSTAEAEAAPEASGSTAGASDDAASQGSTAASEEPEAAPPSEAPAKAEAPDLGAGTYGIGPLFATFSPDGSFTMRNVELDTSASGKWEVTDGLLTLSDPEGGSGSSSFPMLCQLVKEAEALKLAKAQTGSCPLAGMEIARR
protein production: failed

MQRTAVLPYVQLLKPITWFAPMWAFGCGLISSGLPVWDRWPVIALGVLLCGPLVCGTSQAVNDWFDRHVDAINEPDRPIPSGRIPGRVGLYIAIGWTVLSLAVAWVLGPWVFGAAIFGLALAWAYSAPPFRLKGNGWWGNSAVGLCYEGLPWFTGAAVIAGALPDTRIVLLAVLYSIGAHGIMTLNDFKAVEGDIRMGVRSLPVQLGVAPAARLACAVMAVPQMVVIGLVASWDRPYHAGAVGLLLLAQFVLMARLLKRPRELAPWYNATGTTLYVIGMMVSAFALAPLIGAVELAPLIGAAP
protein production: failed

SATERADSADFRTIIRNKIPLMDVRAPVEFGKGAFDLSINYPLMNNDERADVGICYKQNGQEAAIKLGNALVSGQSKARRLTQWQTFARENPQGYLYCFRGGLRSQTVQRWLKESGINYPLITGGYKALRQFLLNELEQLALH
protein production: failed

MGYLKNHWWKRWIRRRGCKLAGGPASVGKRTTLVLEERVELGHLRIVPPRLEIGAYSYVRSGTDLSLVASIGRFCSIGSDCFIGQEKHTHPSDWVSSHPFQHTGTALRYEPALSYAEIGHDVWIGHSAMVMEGVKVGTGAIIATRAVVTRDVPPYAIVAGTPAQVIRYRHPPEIIEGLLASRWWELDSAFLTGLPLDR
protein production: failed

MAAYGLYTHIASNKLRSMLLLAGLFALVYVLVYAGALVAEVVINGNETVAFYLSHAFLDLKVAAPVATVVTAVWVVIAYFFHQSMIDAVTGGHDVTRKEEPRLYNLLENLCISRGITMPKLKIMESPALNAFATGLNPRQYSITVTTGLLNALNDKEIEAVLGHELTHIKNGDVQLMVVAVIIAGVVGFFGELFFRLFTNLSWNSGGSWSSGSSSSRSSSSSSDSKNSGGGAVIVIIIAVVLIVVAWLMSQVVKLALSRSREYLADAGSVELTKDPDAMISALRKIENRGELPGATSAVMELCVDNPREGFADLFATHPSVQSRVDALVKFAGGHDPGPLPDPTDETEQPEAQGAPQDAPPPLSQRPWGDAAGPANPPPVPAPSPSGTTAGNPIGNPMGPWGRH
protein production: failed

MELLFIIAAFVMGFIALKINLPPLVGFLLAGFGLHALGFQSNDALETFADLGVTLLLFSIGLKLDIKTLLAKEIWLGATLHNVFSTLFFTFALLGLKLLGINMLANIETAQLVLFGFALSFSSTVFAVKALQEKGEMNATYGTLAIGILVMQDIFAVVFLTASTGKIPEITALALFALPLFRPLFFKLLDWAGHGEMLVLYGIFLALVAGAGTFELVGMKPDLGALILGMLLAGHAKASELSKSLFNLKEVLLICFFLNIGLSAAPTISGLGLALILILLLPVKGFLYFIIINKFKFRVRTSLLASLTLFNYSEFGLIVGGLAFKMGWLPADTLVAIAIAVSISFIISAPLNNFGHTIYQRSRHWLKEHTAERLNPMDKLINPGRAQILILGMGRIGSGAYDELKEKYGDIILGIELREESAKQHQELGRNVISGDATDPDFWERILSTSHVKLVLLAMPNHQGNQFALEQLQTRNYQGQTAAIAAYNDQIDGLIEQGVDAAFNIYHEAGSGFARHVSEQLDPQFNHHKDYITH
protein production: failed

MLAVIEKQGNEYVVQFERYFSYSIEEVWSVLTENSKLKKWMSNLQIESLKTGGIIKFDMMDGSFINIDILECQVNAVLEFTWDKDCVRFEIHKEENDTLLLLKEYIHELTDHTPKDIAGWHICLDLFSSVLEGKEKEFSKDEWKQWFEIYKDKVLELRA
protein production: failed

MPSCAVEGNPSVHTPHPPRPLYPPRPAMPPGESDESLGGQLRGRPEGAAPHPVALLMARHWESTYDYAVICLASSANVASIVTAGAFQQVVGRLMRSGSAAAVRPALLVAVRDTVREWSAEERISGVLPELRKPAGGRGMRAAKSLTPENRVLAERSFLTLPGLSRCLLWHTEVEAESISVPAGLSGIGTDTATAALEQAREQFREGCVRAHRELAPTKECRLYNRLLDVPIRRGGALLPDVQRHLLGCRFCRNAAEQLSHFEGALGGLLAEAVLGWGARRYLESRPGRTPYGGRARGVSGSGGRPGSGGRHRLLAQIPAPGRRTPVGERGARAVLTGVGIASAAVLATFLVTGLWSNDDGNVDPTASTSASGGRTTVLPTPGSQIPPTVSSPPDSAGLPTTPRQTRLRNLAADLCLDVRGEAKAGAGTKLAVCSSAWTQQWTYEKDGLLRSVADPELCLDSGAVDGVAELGRCVAESSAHGGDVRYDLTVQGEVLSRRKGSLAVTPGNTDPDADIVVKVRDGSDKQRWLTDSPSDQPESLSIAGTTPPSATPATDAPAATPAPTPVPASPGTRLTDAPVASSAPPSENYGERRSLTVTDTSTPEPVLPLTVHLPDLLGEIGVGL
protein production: failed

MSVGRIHSFETCGTVDGPGIRFIVFLQGCLMRCMYCHNRDTWDTHDGKEVTVAELIEEAKSYRHFMKASGGGITCSGGEAMLQPEFVRDFFRAAQAEGIHTCLDTNGYIRKHTDVIDEVLEASDLVMLDLKQMKDDVHKEFIGVSNTRVLDFARYLHKIGQKTWIRYVIVPGYTDDEESAHLLGNFIKDMDNIEKIELLPYHKLGAHKWEALGHDYPLEGVNPPSKETMEKMVEILSQYHNNVKY
protein production: failed

LNIAQKGREGRKIGTAFVMGDVEEVMSRSSQLVINPYHGHKEADRDIKNPENWESVMEFAQIDGVFVLDENGIIIACGRYIEASAKDLVSKIKRGLGGRHIACASITKETKAIAVVVSESGGDITVYKDGVEVMHIPSLLF
protein production: failed

MSAFQAFVVNKTETEFTAGVQTISMDDLPEGDVLVRVHYSSVNYKDGLASIPDGKIVKTYPFVPGIDLAGVVVSSQHPRFREGDEVIATGYEIGVTHFGGYSEYARLHGEWLVPLPKGLTLKEAMAIGTAGFTAALSIHRLEEHGLTPERGPVLVTGATGGVGSLAVSMLAKRGYTVEASTGKAAEHDYLRVLGAKEVLAREDVMAERIRPLDKQRWAAAVDPVGGRTLATVLSRMRYGGAVAVSGLTGGAEVPTTVHPFILRGVSLLGIDSVYCPMDLRLRIWERLAGDLKPDLERIAQEISLAELPQALKRILRGELRGRTVVRLA
protein production: not failed

MSANPDRFLGRAEVYAAARPDYPPALGNELARRGLLRGQVADLGAGTGLFTRLLLQRGAQVIAVEPNPEMREQLLRALAAEVTRGQLRVQSGTAEATGLPGSSVDLLTAAQAAHWFDPAPTRREFQRVLRPGGQVLFVWNDWREADGPFNEAYGAVVAHFSPEEGRVRTRVPRDELAQWFSGAPEELSFDHPLTFTRERLHALAGSVSYLPAPGSERFPELLARLDQAFDRQARQDTVELTYRTFAFLGRV
protein production: failed

MSEFLALFSAMWKESWRDKISTFFSIAFPVMFLLIFGFLFGGSGNSVKTAVVTVDYDLSDFGDVYTSLEELKGYYHEVAVVEKERIIFIRNTTDEYYQSLLDSWEISLKNKVTRLLNGLNPVIMVKKEVLKTARELTSFDYTLTGVIAVSLLSIGLFGTVDVFSRYRERGFLKRLKATPVGNFSFVFGLISARMFYGILSTALIMLLGTLIFKASYELNVFLFLISVVSSVLSFIALGALISILFKKSDVATDAAVILFTIMMFLTGVYFPVSFLPDYLRVVSYFLPVKYGVELIRYSLGFEIFPFSRYLITAVIMFLAGLMFVFYTASLVLRKED
protein production: failed

MATKGLKMVTLALLDDKGVIVKGETGLSTNGVFPITDEMLGTKTANITNLSSAPTMIYGNDGQVDADIAKGTPSVAFAFNGLPVDIKNKLLGRVNDTKGGYTQGSIPKVAVLIQTTTIGTAKPQYVAFAAGKMNETAMNLQTNTNAVVRVDDALTFTAFSVSRWGGEAVKFFDGGDSKFTEDVMMKDVFNGYAGVGV
protein production: failed
